The record followed here is the Immune Epitope Database (IEDB).

In assay [1] the target is HLA-A*02:06. The assay is described as follows: IEDB peptide-MHC binding, purified MHC/competitive/radioactivity; filed as Kd, often an IC50 or EC50 that approximates it; ≥ and ≤ were set here for values at or beyond the usual limits of such assays.
The target of assay [2] is HLA-A*02:17. The description is as above.
In assay [3] the target is HLA-A*02:03. The assay is described as above.
Assay [4] deals with HLA-A*02:01. The description is as above.
Assay [5] addresses HLA-B*08:01. The description is as above.
Assay [6] has as its target HLA-A*68:02. The assay is described as follows: IEDB peptide-MHC binding, purified MHC/competitive/fluorescence; filed as Kd, often an IC50 or EC50 that approximates it; ≥ and ≤ were set here for values at or beyond the usual limits of such assays.
The target in assay [7] is HLA-B*51:01. The assay is described as follows: IEDB peptide-MHC binding, purified MHC/competitive/radioactivity; filed as Kd, often an IC50 or EC50 that approximates it; ≥ and ≤ were set here for values at or beyond the usual limits of such assays. The following applies: source organism: Dengue virus 2 Jamaica/1409/1983.
Assay [8] deals with HLA-B*53:01. Described as above.
Assay [9] deals with HLA-B*58:01. The description is as above.
The target in assay [10] is HLA-B*35:01. Described as above.
In assay [11] the target is HLA-B*51:01. The assay is described as follows: IEDB peptide-MHC binding, purified MHC/direct/fluorescence; filed as Kd, often an IC50 or EC50 that approximates it; ≥ and ≤ were set here for values at or beyond the usual limits of such assays.
In assay [12] the target is HLA-B*07:02. The assay is described as above.
The target of assay [13] is HLA-B*15:01. Described as above.
Assay [14] addresses HLA-A*68:02. The assay is described as follows: IEDB peptide-MHC binding, purified MHC/competitive/radioactivity; filed as Kd, often an IC50 or EC50 that approximates it; ≥ and ≤ were set here for values at or beyond the usual limits of such assays. The following applies: source organism: Dengue virus 3 Singapore/8120/1995.
Assay [15] addresses HLA-A*24:03. As to the kind of experiment: IEDB peptide-MHC binding, purified MHC/competitive/fluorescence; filed as Kd, often an IC50 or EC50 that approximates it; ≥ and ≤ were set here for values at or beyond the usual limits of such assays.
Assay [16] concerns the target HLA-A*32:01. The assay is described as follows: IEDB peptide-MHC binding, purified MHC/competitive/radioactivity; filed as Kd, often an IC50 or EC50 that approximates it; ≥ and ≤ were set here for values at or beyond the usual limits of such assays.
Assay [17] concerns the target HLA-A*03:01. The assay is described as follows: IEDB peptide-MHC binding, purified MHC/competitive/fluorescence; filed as Kd, often an IC50 or EC50 that approximates it; ≥ and ≤ were set here for values at or beyond the usual limits of such assays. To be noted: source organism: Homo sapiens.
Assay [18] has as its target HLA-B*57:01. The description is as above. To be noted: source organism: Homo sapiens.
Assay [19] deals with HLA-B*18:01. Described as above. The following applies: source organism: Homo sapiens.
Assay [20] concerns the target HLA-B*46:01. Described as above. To be noted: source organism: Homo sapiens.
Assay [21] concerns the target HLA-B*15:01. The description is as above. The following applies: source organism: Homo sapiens.
Assay [22] concerns the target HLA-A*26:01. Described as above. To be noted: source organism: Homo sapiens.
Assay [23] concerns the target HLA-B*27:03. The assay is described as above. To be noted: source organism: Homo sapiens.
The target in assay [24] is HLA-A*02:01. Described as above. The following applies: source organism: Homo sapiens.
For assay [25], the target named is HLA-B*44:03. As to the kind of experiment: IEDB peptide-MHC binding, purified MHC/competitive/radioactivity; filed as Kd, often an IC50 or EC50 that approximates it; ≥ and ≤ were set here for values at or beyond the usual limits of such assays. To be noted: source organism: Lassa virus Josiah.
Assay [26] deals with HLA-B*44:02. The assay is described as above. To be noted: source organism: Lassa virus Josiah.
Assay [27] concerns the target HLA-B*18:01. The description is as above. To be noted: source organism: Lassa virus Josiah.
Assay [28] concerns the target HLA-B*40:01. Described as above. The following applies: source organism: Lassa virus Josiah.
In assay [29] the target is HLA-B*40:02. Described as above. To be noted: source organism: Lassa virus Josiah.
For assay [30], the target named is HLA-B*45:01. Described as above. To be noted: source organism: Lassa virus Josiah.
Assay [31] deals with HLA-A*23:01. The assay is described as above. The following applies: source organism: Lassa virus Josiah.
Assay [32] has as its target HLA-A*29:02. The assay is described as above. The following applies: source organism: Lassa virus Josiah.
The target of assay [33] is HLA-A*24:02. The assay is described as above. To be noted: source organism: Lassa virus Josiah.
Setting [34] is: source organism: Dengue virus 2 Jamaica/1409/1983.
The mark [35] stands for this setting: source organism: Dengue virus 4 Philippines/H241/1956.
[36] abbreviates: source organism: Dengue virus 3 Martinique/1243/1999.
Setting [37] is: source organism: West Nile virus.
The mark [38] stands for this setting: source organism: Burkholderia mallei.
[39] abbreviates: source organism: Vibrio cholerae.
Setting [40] is: source organism: Dengue virus 1 Brazil/97-11/1997.
Setting [41] is: source organism: Dengue virus 1 Singapore/S275/1990.
The mark [42] stands for this setting: source organism: Dengue virus 3 Singapore/8120/1995.
[43] abbreviates: source organism: Dengue virus 3 China/80-2/1980.
[44] abbreviates: source organism: Dengue virus 1 Nauru/West Pac/1974.

Turning to ALIFILLTAV, the equilibrium dissociation constant (Kd) is 56.8 nM in assay [1] (setting [34]), not below 39400 nM in assay [2] (setting [34]), 13.2 nM in assay [3] (setting [34]) and 0.498 nM in assay [4] (setting [34]).

For the sequence ALWDVPSPA, the equilibrium dissociation constant (Kd) stood at 885 nM in [2] (setting [35]), 16.8 nM in assay [3] (setting [35]) and 2.72 nM in [4] (setting [35]).

Turning to CLWPKTHTL, the Kd came out at 5.74 nM in assay [5] (setting [35]), 251 nM in [2] (setting [35]) and 13.8 nM in assay [4] (setting [35]).

Consider ELWDPSTEA, for which the Kd in assay [6] (source organism: Burkholderia mallei NCTC 10229) was found to be 78.1 nM.

For the sequence FLFLMSGKGI, the Kd in assay [2] (setting [34]) was 1320 nM; in assay [3] (setting [34]), 11.5 nM; in assay [4] (setting [34]) it was 39.6 nM; in [7] it was 5580 nM.

For the sequence IASAIVLEF, the values for the Kd in [8] (setting [36]), in assay [9] (setting [36]) and in assay [10] (setting [36]) were 7.65 nM, 2.88 nM and 8.89 nM, respectively.

IPTAAGKNL: in assay [11] (setting [37]), the Kd is not below 20000 nM.

Turning to KLAQVRRAM, the Kd is 6 nM in assay [12] (setting [38]), 27 nM in assay [13] (source organism: Burkholderia mallei ATCC 23344) and not below 20000 nM in assay [11] (setting [38]).

For KMEKASFIEV, the equilibrium dissociation constant (Kd) in assay [2] (setting [34]) is 1860 nM; in assay [4] (setting [34]), 143 nM.

In the case of LLRQHWLSL, the Kd in assay [12] (setting [39]) is 13 nM; in assay [13] (source organism: Vibrio cholerae O395), 49 nM; in assay [11] (setting [39]) it was not below 20000 nM.

LMLLALIAV: the Kd amounted to 8.08 nM in assay [1] (setting [40]), 553 nM in [2] (setting [41]) and 23.3 nM in assay [4] (setting [41]).

With LMLVALLGA, the Kd in [2] (setting [35]) was determined as 2920 nM; in assay [4] (setting [35]), 10400 nM.

On to MALKLITQF, for which the Kd in assay [8] (setting [36]) worked out at 22.4 nM; in assay [9] (setting [36]), 2.16 nM; in assay [10] (setting [36]), 1.25 nM.

For the sequence MIAGVLFTFV, the dissociation constant (Kd) in assay [14] worked out at 1.75 nM; in assay [1] (setting [42]), 2.44 nM; in assay [2] (setting [43]) it was 423 nM; in assay [3] (setting [42]) it was 1.85 nM; in assay [4] (setting [43]), 10.7 nM.

In the case of MLDVDLHPA, the Kd in [1] (setting [44]) was found to be 18 nM; in assay [2] (setting [44]), 19800 nM; in assay [4] (setting [44]), 75.2 nM.

For the sequence NCADHFEGV, the dissociation constant (Kd) in assay [6] (source organism: Escherichia coli HS) was 1.5 nM.

Turning to NPITLTAAL, the Kd in [11] (source organism: dengue virus type 2) is not below 20000 nM; in [5] (setting [34]) it was 69.6 nM; in assay [8] (setting [34]), 377 nM; in [10] (setting [34]), 25.2 nM.

Turning to PASAAQRRGR, in assay [9] (setting [35]), the dissociation constant (Kd) is 15400 nM.

PFGQWDQTF registered an equilibrium dissociation constant (Kd) in assay [15] (source organism: Yersinia pestis Antiqua) of 209 nM.

Take QIMEVTARW: the Kd in assay [16] (setting [41]) was 56.3 nM; in [9] (setting [41]), 18.6 nM.

As to QLWTALISL, the equilibrium dissociation constant (Kd) in assay [2] (setting [36]) amounted to 234 nM; in assay [4] (setting [36]), 1.45 nM.

For RTVFFVLMM, the Kd is not below 51300 nM in assay [16] (setting [35]) and 635 nM in [9] (setting [35]).

RVIDSRKSV had a dissociation constant (Kd) in assay [11] (setting [37]) of 1600 nM.

Take VLMLVAHYA: the figures for the Kd in [2] (setting [41]), in assay [3] (setting [40]) and in assay [4] (setting [41]) were 13200 nM, 2.73 nM and 6.67 nM, respectively.

Regarding WLGHPFTPV, the Kd in assay [17], in assay [18], in assay [19], in [20], in [21] and in assay [22] was not below 20000 nM in each case. For the same sequence, the dissociation constant Kd is not below 20000 nM in assay [23], not below 20000 nM in assay [15] (source organism: Homo sapiens) and 0.3 nM in [24].

Consider YDHALMSII, for which the Kd in [25] was not below 33400 nM; in assay [26], 7050 nM; in assay [27] it was not below 25400 nM; in assay [28] it was not below 26600 nM; in [29], 49.5 nM; in [30] it was not below 68600 nM. Further, the Kd in assay [31] was 7730 nM; in assay [32] it was not below 46600 nM; in assay [33], not below 30800 nM.

With YLDVDLHPA, the Kd is 37.2 nM in [1] (setting [36]), 1890 nM in assay [2] (setting [43]) and 4.42 nM in [4] (setting [43]).
